# Laboratory results: IntAct's records for PubMed 25122212
# B1: Envelope small membrane protein (Human SARS coronavirus), P59637 (parent)
# chain: MYSFVSEETGTLIVNSVLLFLAFVVFLLVTLAILTALRLCAYCCNIVNVSLVKPTVYVYSRVKNLNSSEGVPDLLV
# Variants of: B1
# Conditions: with SDCBP
row,Variant,effect of a mutation on the interaction
1,E69A;V71A;D73A;L75A,with no effect

# Variants of: B1
# Conditions: with SDCBP
# Remark: another data set of the same source
row,Variant,effect of a mutation on the interaction
1,D73G;L74G;L75G;V76G,decreasing interaction strength
